Measured values as given in PMC7596504, “Molecular mechanism of the MORC4 ATPase activation” (Nature Communications, 2020).

What was measured:
NCP147 = experiment: EMSA with NCP147; type: binding; settings: 5 nM 147 bp fluorescein-labeled NCP, pH 7.5, 4 °C
Protocol: EMSAs were performed by mixing increasing amounts of MORC4 ATPase with 5 nM 147 bp fluorescein-labeled NCP in 25 mM Tris-HCl pH 7.5, 75 mM NaCl, 25 mM Tris-HCl pH 7.5, 0.005% Tween 20, and 10% glycerol buffer in a 12 μL reaction volume. Each sample was incubated at 4 °C for 5 min and then loaded onto a 5% native polyacrylamide gel. Electrophoresis was performed in 0.3× Tris-borate-EDTA (TBE) at 300 V for 90 min. Fluorescein fluorescence images were acquired with a Typhoon Phosphor Imager.

MORC4 [1] = target: T1, MORC4 (Homo sapiens, UniProt Q8TE76); experiment: ATPase activity assay (EnzChek Phosphate Assay Kit); type: biochemical; parameters: Rate of ATP hydrolysis: unit not given here; settings: Supp. Fig. 1
T1 construct: the ATPaseCW cassette (aa 29–486) of human MORC4 (Q8TE76); GST (cleaved yes); made in house; host or cells: E. coli Rosetta2 (DE3) pLysS or BL21 (DE3) RIL
T1 sequence (Q8TE76 1-937): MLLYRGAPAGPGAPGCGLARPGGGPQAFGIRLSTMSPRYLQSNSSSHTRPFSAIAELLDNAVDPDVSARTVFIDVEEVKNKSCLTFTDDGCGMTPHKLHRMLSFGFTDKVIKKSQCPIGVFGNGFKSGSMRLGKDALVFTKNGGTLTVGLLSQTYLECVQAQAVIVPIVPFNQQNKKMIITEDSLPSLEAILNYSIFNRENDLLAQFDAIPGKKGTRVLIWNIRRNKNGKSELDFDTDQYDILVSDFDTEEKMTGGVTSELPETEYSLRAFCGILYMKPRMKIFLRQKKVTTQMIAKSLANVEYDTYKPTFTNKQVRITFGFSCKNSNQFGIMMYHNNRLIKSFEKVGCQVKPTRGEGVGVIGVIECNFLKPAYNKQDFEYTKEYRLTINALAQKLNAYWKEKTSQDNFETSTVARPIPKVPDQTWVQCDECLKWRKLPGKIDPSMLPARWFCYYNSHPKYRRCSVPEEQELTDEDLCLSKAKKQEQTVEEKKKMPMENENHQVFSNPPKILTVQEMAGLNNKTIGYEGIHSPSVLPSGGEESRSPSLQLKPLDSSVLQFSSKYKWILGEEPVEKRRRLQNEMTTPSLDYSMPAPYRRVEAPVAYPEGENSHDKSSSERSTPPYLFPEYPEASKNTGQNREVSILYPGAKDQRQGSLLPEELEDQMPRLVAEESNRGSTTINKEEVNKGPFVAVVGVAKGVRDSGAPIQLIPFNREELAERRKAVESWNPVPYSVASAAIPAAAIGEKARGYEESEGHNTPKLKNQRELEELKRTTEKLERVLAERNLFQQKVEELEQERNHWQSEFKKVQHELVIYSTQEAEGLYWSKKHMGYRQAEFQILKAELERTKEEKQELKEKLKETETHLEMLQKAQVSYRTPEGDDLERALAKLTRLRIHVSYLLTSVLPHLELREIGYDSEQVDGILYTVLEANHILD
Protocol: (§1) To determine whether MORC4 is catalytically active, we produced the ATPase domain of human MORC4 and examined its ability to hydrolyze ATP in enzymatic assays (Fig. 1a–c). Following incubation of the ATPase domain with ATP, 2-amino-6-mercapto-7-methylpurine ribonucleoside and nucleoside phosphorylase, the release of inorganic phosphate generated by the hydrolysis of ATP to ADP was monitored by measuring an increase in absorbance at 360 nm.
(§2) The ATPase assays were performed using the EnzChek Phosphate Assay Kit (Invitrogen, item # E6646). The reactions were carried out on 1.0 µM of MORC4 His-ATPase or ATPaseCW (WT and mutants), in the presence and absence of 1 µM 601 DNA or 50 µM of unmodified H3 or H3K4me3 peptide (aa 1–12 of H3) in a buffer containing 50 mM Tris-HCl (pH 7.5), 150 mM NaCl, 1 mM MgCl2, 0.1 mM sodium azide, 200 µM MESG, and 1 U of PNP. In assay with the nucleosome, 0.5 µM of MORC4 ATPaseCW and 0.5 µM NCP167 (Activemotif) were used. The reaction was started by adding 2 mM ATP to the mixture at room temperature, and the release of inorganic phosphate was monitored by measuring the absorbance at 360 nm on a Nanodrop 2000c spectrophotometer (Thermo Scientific). In the presence of inorganic phosphate, produced by the hydrolysis of ATP to ADP, MESG is enzymatically converted to ribose 1-phosphate and […] by PNP, resulting in a shift in the wavelength absorbance from 330 nm for MESG to 360 nm for the product. The rate of ATP self-hydrolysis was measured in parallel. Error was calculated as the S.D. of at least three separate experiments (two in Fig. 4j).

MORC4 [2] = experiment: as above; type: biochemical, human; parameters: Rate of ATP hydrolysis: unit not given here
Protocol: as §1, §2

binding to NCP147 in EMSA (NCP147): bound to NCP147 | Rate of ATP hydrolysis (MORC4 [1]; 0.5 µM MORC4 ATPaseCW + 0.5 µM NCP167, mean of 3): 0.468 | Rate of ATP hydrolysis (MORC4 [1]; 0.5 µM MORC4 ATPaseCW + 0.5 µM NCP167, replicate 1): 0.5696 | Rate of ATP hydrolysis (MORC4 [1]; 0.5 µM MORC4 ATPaseCW + 0.5 µM NCP167, replicate 2): 0.408 | Rate of ATP hydrolysis (MORC4 [1]; 0.5 µM MORC4 ATPaseCW + 0.5 µM NCP167, replicate 3): 0.4265 | Rate of ATP hydrolysis (MORC4 [1]; 0.5 µM MORC4 ATPaseCW, without NCP167, mean of 3): 0.2339 | Rate of ATP hydrolysis (MORC4 [1]; 0.5 µM MORC4 ATPaseCW, without NCP167, replicate 1): 0.309 | Rate of ATP hydrolysis (MORC4 [1]; 0.5 µM MORC4 ATPaseCW, without NCP167, replicate 2): 0.1285 | Rate of ATP hydrolysis (MORC4 [1]; 0.5 µM MORC4 ATPaseCW, without NCP167, replicate 3): 0.2641 | Rate of ATP hydrolysis (MORC4 [2]; + H3K4me3 + 601 DNA, Fig. 1c, mean of 3): 0.3353 | Rate of ATP hydrolysis (MORC4 [2]; + H3K4me3 + 601 DNA, Fig. 1c, replicate 1): 0.3507 | Rate of ATP hydrolysis (MORC4 [2]; + H3K4me3 + 601 DNA, Fig. 1c, replicate 2): 0.3597 | Rate of ATP hydrolysis (MORC4 [2]; + H3K4me3 + 601 DNA, Fig. 1c, replicate 3): 0.2954 | Rate of ATP hydrolysis (MORC4 [2]; + H3un + 601 DNA, Fig. 1c, mean of 3): 0.3154 | Rate of ATP hydrolysis (MORC4 [2]; + H3un + 601 DNA, Fig. 1c, replicate 1): 0.2842 | Rate of ATP hydrolysis (MORC4 [2]; + H3un + 601 DNA, Fig. 1c, replicate 2): 0.3368 | Rate of ATP hydrolysis (MORC4 [2]; + H3un + 601 DNA, Fig. 1c, replicate 3): 0.3251 | Rate of ATP hydrolysis (MORC4 [2]; no DNA, no peptide, 1.0 µM protein, 2 mM ATP, pH 7.5, room temperature, absorbance 360 nm, Fig. 1b,c, mean): 0.09309 | Rate of ATP hydrolysis (MORC4 [2]; no DNA, no peptide, Fig. 1b,c, replicate 1): 0.08409 | Rate of ATP hydrolysis (MORC4 [2]; no DNA, no peptide, Fig. 1b,c, replicate 2): 0.08589 | Rate of ATP hydrolysis (MORC4 [2]; no DNA, no peptide, Fig. 1b,c, replicate 3): 0.1093
B1: ATPaseCW: ATPaseCW cassette (aa 29–486) of human MORC4 (Q8TE76) (protein)
chain: GIRLSTMSPRYLQSNSSSHTRPFSAIAELLDNAVDPDVSARTVFIDVEEVKNKSCLTFTDDGCGMTPHKLHRMLSFGFTDKVIKKSQCPIGVFGNGFKSGSMRLGKDALVFTKNGGTLTVGLLSQTYLECVQAQAVIVPIVPFNQQNKKMIITEDSLPSLEAILNYSIFNRENDLLAQFDAIPGKKGTRVLIWNIRRNKNGKSELDFDTDQYDILVSDFDTEEKMTGGVTSELPETEYSLRAFCGILYMKPRMKIFLRQKKVTTQMIAKSLANVEYDTYKPTFTNKQVRITFGFSCKNSNQFGIMMYHNNRLIKSFEKVGCQVKPTRGEGVGVIGVIECNFLKPAYNKQDFEYTKEYRLTINALAQKLNAYWKEKTSQDNFETSTVARPIPKVPDQTWVQCDECLKWRKLPGKIDPSMLPARWFCYYNSHPKYRRCSVPEEQELTDEDLCLSKAKKQE
modifications: left off: GST, end not stated, cleaved
